From paper PMC9701220, “Molecular basis for glycan recognition and reaction priming of eukaryotic oligosaccharyltransferase” (Nature Communications, 2022) come the findings set out here.

The star is where a group is joined. 5‑TAMRA = CN(C)c1ccc2c(-c3ccc(C(=O)*)cc3C(=O)[O-])c3ccc(N(C)C)cc3[o+]c2c1

What all share (details): both partners purified
For experiment [1], the target named is T1, S. cerevisiae oligosaccharyltransferase (OST) complex, OST3-containing (S. cerevisiae, UniProt P39007 1-718; P41543 23-476; Q92316 1-86; P48439 23-350; Q99380 1-36; P46964 …).
T1 construct: STT3, catalytic subunit of S. cerevisiae OST; OST1, subunit of S. cerevisiae OST (subcomplex I); OST5, subunit of S. cerevisiae OST (subcomplex I); OST3, oxidoreductase subunit of S. cerevisiae OST (subcomplex II); expressed from the plasmid YEp352-OST3 in an ost6 deletion strain; OST4, subunit of S. cerevisiae OST (subcomplex II); genomic OST4-1D4; OST2, subunit of S. cerevisiae OST (subcomplex …)
T1 sequence (P41543 23-476, chain 2 of 4): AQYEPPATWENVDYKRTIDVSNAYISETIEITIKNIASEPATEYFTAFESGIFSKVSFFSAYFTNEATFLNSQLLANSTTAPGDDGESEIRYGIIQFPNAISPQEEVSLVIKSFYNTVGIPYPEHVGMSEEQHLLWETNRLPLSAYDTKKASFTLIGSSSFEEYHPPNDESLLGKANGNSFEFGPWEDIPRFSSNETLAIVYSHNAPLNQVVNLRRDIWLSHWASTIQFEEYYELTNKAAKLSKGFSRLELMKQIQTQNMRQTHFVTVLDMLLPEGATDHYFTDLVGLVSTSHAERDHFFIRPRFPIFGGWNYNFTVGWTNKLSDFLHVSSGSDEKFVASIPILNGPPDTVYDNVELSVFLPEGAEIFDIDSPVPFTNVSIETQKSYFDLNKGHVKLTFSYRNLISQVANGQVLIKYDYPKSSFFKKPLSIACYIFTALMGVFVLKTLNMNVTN
T1 sequence (Q92316 whole entry, chain 3 of 4): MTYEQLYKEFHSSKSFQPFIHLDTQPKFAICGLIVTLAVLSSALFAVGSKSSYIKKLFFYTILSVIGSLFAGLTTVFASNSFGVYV
T1 sequence (Q99380 whole entry, chain 5 of 4): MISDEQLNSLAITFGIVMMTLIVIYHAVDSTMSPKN
T1 sequence (Q02795 20-286, chain 8 of 4, further chain): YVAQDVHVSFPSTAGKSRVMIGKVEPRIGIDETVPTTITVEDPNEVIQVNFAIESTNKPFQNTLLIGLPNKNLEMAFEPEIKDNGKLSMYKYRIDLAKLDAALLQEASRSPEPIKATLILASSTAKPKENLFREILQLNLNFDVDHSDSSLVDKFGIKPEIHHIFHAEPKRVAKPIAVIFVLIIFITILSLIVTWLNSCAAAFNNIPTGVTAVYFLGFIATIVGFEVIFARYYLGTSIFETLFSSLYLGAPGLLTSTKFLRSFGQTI
Nature of the experiment: cryo-EM structure; digitonin-purified OST 18 uM incubated with 500 uM TAMRA-YANATS peptide for 15 min before vitrification, no LLO; the sample gave two states, peptide-bound (2.8 A) and apo (2.9 A).

The target of experiment [2] is T2, WBP1, subunit of S. cerevisiae OST (S. cerevisiae, UniProt P33767 21-430).
T2 construct: WBP1, non-catalytic subunit of S. cerevisiae OST; Stood in the assay within the whole OST complex; also called WPB1; source: S. cerevisiae, as a subunit of the purified OST complex (Rho-1D4 antibody Sepharose through OST4-1D4, SEC)
T2 sequence (looked up): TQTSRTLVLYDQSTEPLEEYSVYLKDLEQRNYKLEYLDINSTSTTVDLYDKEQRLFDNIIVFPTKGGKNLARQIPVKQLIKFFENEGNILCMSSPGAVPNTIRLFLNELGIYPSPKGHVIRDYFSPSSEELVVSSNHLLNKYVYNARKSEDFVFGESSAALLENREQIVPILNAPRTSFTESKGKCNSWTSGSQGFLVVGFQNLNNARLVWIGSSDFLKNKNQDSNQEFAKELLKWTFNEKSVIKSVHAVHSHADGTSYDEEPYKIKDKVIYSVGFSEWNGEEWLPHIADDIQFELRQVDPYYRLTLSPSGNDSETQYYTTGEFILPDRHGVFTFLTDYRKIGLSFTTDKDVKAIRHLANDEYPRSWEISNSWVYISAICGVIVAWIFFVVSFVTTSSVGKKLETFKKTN
Description: cryo-EM structure; nanodisc-reconstituted OST 2.5 uM incubated with 7.5 uM Dol20-PP-GlcNAc2Man9Glc3 and 500 uM TAMRA-YA(Dab)ATS peptide for 15 min before vitrification; MnCl2 present; the sample gave two states, LLO-bound (3.0 A) and ternary complex (3.1 A).

Experiment [3] deals with T3, STT3, catalytic subunit of S. cerevisiae OST (S. cerevisiae, UniProt P39007 1-718).
T3 construct: STT3, catalytic subunit of S. cerevisiae OST; Stood in the assay within the whole OST complex; also called S.c; STT3; source: S. cerevisiae, as a subunit of the purified OST complex (Rho-1D4 antibody Sepharose through OST4-1D4, SEC)
T3 sequence: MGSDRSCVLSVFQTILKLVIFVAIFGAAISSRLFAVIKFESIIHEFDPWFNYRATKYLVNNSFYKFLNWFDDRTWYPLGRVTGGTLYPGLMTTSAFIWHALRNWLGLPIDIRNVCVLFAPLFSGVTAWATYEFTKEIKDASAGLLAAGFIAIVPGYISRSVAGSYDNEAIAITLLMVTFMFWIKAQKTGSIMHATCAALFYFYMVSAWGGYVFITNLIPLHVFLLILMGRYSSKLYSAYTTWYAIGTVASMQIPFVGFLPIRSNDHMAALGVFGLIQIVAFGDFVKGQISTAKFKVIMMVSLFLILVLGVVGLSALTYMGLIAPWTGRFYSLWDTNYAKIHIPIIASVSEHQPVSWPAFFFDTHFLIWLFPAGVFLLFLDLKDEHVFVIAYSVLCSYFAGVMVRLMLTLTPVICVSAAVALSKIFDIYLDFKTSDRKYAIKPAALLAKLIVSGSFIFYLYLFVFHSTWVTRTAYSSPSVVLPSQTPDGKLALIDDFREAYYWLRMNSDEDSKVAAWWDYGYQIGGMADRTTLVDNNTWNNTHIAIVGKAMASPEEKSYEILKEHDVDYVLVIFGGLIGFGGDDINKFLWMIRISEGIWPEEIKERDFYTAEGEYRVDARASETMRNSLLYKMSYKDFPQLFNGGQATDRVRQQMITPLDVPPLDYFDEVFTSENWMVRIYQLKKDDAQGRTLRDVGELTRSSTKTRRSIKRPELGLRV
The experiment is described as above.

B1: TAMRA-YANATS-NH2 (peptide)
peptide: {5‑TAMRA}-YANATS-NH2
SMILES: C[C@H](NC(=O)[C@H](Cc1ccc(O)cc1)NC(=O)c1ccc(-c2c3ccc(N(C)C)cc3[o+]c3cc(N(C)C)ccc23)c(C(=O)[O-])c1)C(=O)N[C@@H](CC(N)=O)C(=O)N[C@@H](C)C(=O)N[C@H](C(=O)N[C@@H](CO)C(N)=O)[C@@H](C)O
notes: acceptor substrate of OST; also called 5-TAMRA-YANATS; reactive peptide; source: bought: Genscript
For the molecule B1, in experiment [1], the binding result was “binds”.

B2: OST2, subunit of S. cerevisiae OST (natural protein)
chain: MAKAPKANTPKVTSTSSAVLTDFQETFKTSKRAYFAQIEKYPKLKLIDTFCFFLVLLGVIQCTFIILIRDNFPFNAFLAGFIICVGQFVLLMSLRLQLCNSFPGISKNRAFAEFIVASLILHFVCLHFIN
notes: OST2, non-catalytic subunit of S. cerevisiae OST; Stood in the assay within the whole OST complex; source: S. cerevisiae, as a subunit of the purified OST complex (Rho-1D4 antibody Sepharose through OST4-1D4, SEC)
In the case of B2, the binding result in experiment [2] is “binds”.

B3: OST3, subunit of S. cerevisiae OST (natural protein, UniProt P48439 23-350, looked up)
chain: MSSNRLLKLANKSPKKIIPLKDSSFENILAPPHENAYIVALFTATAPEIGCSLCLELESEYDTIVASWFDDHPDAKSSNSDTSIFFTKVNLEDPSKTIPKAFQFFQLNNVPRLFIFKPNSPSILDHSVISISTDTGSERMKQIIQAIKQFSQVNDFSLHLPMDWTPIITSTIITFITVLLFKKQSKLMFSIISSRIIWATLSTFFIICMISAYMFNQIRNTQLAGVGPKGEVMYFLPNEFQHQFAIETQVMVLIYGTLAALVVVLVKGIQFLRSHLYPETKKAYFIDAILASFCALFIYVFFAALTTVFTIKSPAYPFPLLRLSAPFK
notes: OST3, oxidoreductase subunit of S. cerevisiae OST; Stood in the assay within the whole OST complex; source: S. cerevisiae (YEp352-OST3), as a subunit of the purified OST complex (Rho-1D4 antibody Sepharose through OST4-1D4, SEC)
For B3, the binding result in experiment [3] is on record as “binds”.
